{"source": "patent US20240261333A1", "about": "“NOVEL TARGETS FOR ENHANCING ANTI-TUMOR IMMUNITY” (THE BROAD INSTITUTE, INC., priority 2021, published 2024)", "key": {"LYZ [1]": {"target": "LYZ (UniProt P61626)", "sequence (P61626 19-148 limits assumed)": "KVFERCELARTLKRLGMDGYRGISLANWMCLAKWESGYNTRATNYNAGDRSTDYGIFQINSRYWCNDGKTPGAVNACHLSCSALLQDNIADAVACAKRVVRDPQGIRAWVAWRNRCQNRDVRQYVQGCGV", "experiment": "co-IP with mouse IgG control, mass spectrometry; lysate of C-FLAG B3GNT2 cells"}, "S100A8": {"target": "S100A8 (UniProt P05109)", "sequence (P05109 whole entry)": "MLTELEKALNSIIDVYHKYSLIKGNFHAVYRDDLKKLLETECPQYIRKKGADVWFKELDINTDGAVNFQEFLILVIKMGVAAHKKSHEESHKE", "experiment": "co-IP with mouse IgG control, mass spectrometry; lysate of C-FLAG B3GNT2 cells"}, "ATXN2L": {"target": "ATXN2L (UniProt Q8WWM7)", "sequence (Q8WWM7 whole entry)": "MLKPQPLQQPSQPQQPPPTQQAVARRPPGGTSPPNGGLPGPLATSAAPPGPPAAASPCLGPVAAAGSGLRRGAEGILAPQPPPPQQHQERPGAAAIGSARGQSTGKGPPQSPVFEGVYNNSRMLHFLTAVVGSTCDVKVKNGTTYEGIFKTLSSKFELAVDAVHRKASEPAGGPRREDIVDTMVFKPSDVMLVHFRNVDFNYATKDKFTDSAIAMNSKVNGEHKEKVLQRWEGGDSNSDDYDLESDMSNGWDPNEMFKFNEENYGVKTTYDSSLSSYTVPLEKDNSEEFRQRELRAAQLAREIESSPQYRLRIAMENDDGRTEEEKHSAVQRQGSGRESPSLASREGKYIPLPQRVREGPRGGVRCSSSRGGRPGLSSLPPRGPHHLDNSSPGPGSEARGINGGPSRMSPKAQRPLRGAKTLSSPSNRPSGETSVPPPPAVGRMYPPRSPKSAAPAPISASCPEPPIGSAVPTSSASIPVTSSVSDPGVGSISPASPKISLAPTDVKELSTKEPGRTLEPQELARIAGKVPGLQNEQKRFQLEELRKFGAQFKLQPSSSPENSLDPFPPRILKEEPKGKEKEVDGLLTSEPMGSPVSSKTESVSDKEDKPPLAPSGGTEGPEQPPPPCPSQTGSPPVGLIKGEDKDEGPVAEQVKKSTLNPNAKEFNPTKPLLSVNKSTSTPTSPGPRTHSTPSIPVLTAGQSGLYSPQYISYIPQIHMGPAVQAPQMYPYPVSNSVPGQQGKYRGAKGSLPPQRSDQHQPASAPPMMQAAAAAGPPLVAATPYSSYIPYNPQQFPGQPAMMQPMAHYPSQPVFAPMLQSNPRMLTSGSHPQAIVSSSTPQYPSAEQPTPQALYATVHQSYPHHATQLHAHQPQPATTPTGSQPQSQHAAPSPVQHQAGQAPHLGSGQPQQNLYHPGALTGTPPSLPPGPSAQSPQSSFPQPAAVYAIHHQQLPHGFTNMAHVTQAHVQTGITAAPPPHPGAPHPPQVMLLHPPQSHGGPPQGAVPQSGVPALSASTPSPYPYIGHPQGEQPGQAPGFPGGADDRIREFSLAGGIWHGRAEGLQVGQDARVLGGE", "experiment": "co-IP with mouse IgG control, mass spectrometry; lysate of C-FLAG B3GNT2 cells"}, "ACTR3 [2]": {"target": "ACTR3 (UniProt P61158)", "experiment": "co-IP with mouse IgG control, mass spectrometry; lysate of C-FLAG B3GNT2 cells"}, "SSR1 [3]": {"target": "SSR1 (UniProt P43307)", "sequence (P43307 19-286 limits assumed)": "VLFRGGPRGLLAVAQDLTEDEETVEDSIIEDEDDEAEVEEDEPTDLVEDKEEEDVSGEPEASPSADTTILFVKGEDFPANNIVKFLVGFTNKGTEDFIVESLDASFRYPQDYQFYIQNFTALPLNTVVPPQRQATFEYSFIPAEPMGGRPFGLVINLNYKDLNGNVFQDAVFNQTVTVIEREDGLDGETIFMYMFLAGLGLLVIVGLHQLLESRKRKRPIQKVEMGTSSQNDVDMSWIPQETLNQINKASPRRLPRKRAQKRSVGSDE", "experiment": "co-IP with mouse IgG control, mass spectrometry; lysate of C-FLAG B3GNT2 cells"}, "SPRR2E": {"target": "SPRR2E (UniProt P22531)", "experiment": "co-IP with mouse IgG control, mass spectrometry; lysate of C-FLAG B3GNT2 cells"}, "LTF [4]": {"target": "LTF (UniProt P02788)", "sequence (P02788 20-710 limits assumed)": "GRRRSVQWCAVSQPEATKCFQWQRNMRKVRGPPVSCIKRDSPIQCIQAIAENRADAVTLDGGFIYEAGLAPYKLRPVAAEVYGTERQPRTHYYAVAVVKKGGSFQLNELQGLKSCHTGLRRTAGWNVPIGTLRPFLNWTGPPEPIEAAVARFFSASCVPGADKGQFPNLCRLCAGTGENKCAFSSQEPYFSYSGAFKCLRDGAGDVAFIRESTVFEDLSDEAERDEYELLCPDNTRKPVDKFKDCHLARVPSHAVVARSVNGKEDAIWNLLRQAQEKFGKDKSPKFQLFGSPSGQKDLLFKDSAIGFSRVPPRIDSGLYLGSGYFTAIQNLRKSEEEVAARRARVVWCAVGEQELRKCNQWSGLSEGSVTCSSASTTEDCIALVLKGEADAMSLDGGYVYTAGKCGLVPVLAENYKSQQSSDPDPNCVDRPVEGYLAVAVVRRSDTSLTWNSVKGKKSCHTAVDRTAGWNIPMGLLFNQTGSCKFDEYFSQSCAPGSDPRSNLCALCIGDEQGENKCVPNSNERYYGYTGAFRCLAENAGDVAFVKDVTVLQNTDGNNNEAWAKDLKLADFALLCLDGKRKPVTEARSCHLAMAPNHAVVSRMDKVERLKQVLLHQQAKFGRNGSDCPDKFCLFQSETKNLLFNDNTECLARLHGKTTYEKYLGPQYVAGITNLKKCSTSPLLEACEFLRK", "experiment": "co-IP with mouse IgG control, mass spectrometry; lysate of C-FLAG B3GNT2 cells"}, "ATP5F1B [5]": {"target": "ATP5F1B (UniProt P06576)", "sequence (P06576 48-529 limits assumed)": "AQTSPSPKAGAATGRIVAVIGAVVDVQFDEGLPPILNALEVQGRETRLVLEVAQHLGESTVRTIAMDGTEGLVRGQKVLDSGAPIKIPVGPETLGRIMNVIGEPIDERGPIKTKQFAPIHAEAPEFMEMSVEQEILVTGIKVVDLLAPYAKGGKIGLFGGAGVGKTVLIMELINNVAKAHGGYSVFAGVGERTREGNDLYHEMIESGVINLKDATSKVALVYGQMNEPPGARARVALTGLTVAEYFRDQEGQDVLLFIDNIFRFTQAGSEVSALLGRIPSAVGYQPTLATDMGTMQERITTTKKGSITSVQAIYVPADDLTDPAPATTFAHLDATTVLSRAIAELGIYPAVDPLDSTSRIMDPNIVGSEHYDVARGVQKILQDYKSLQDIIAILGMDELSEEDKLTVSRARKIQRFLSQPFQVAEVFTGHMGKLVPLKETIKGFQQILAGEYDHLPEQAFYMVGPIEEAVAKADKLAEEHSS", "experiment": "co-IP with mouse IgG control, mass spectrometry; lysate of C-FLAG B3GNT2 cells"}, "RPL11": {"target": "RPL11 (UniProt P62913)", "experiment": "co-IP with mouse IgG control, mass spectrometry; lysate of C-FLAG B3GNT2 cells"}, "YBX3": {"target": "YBX3 (UniProt P16989)", "experiment": "co-IP with mouse IgG control, mass spectrometry; lysate of N-FLAG B3GNT2 cells"}, "RPL10A": {"target": "RPL10A (UniProt P62906)", "experiment": "co-IP with mouse IgG control, mass spectrometry; lysate of N-FLAG B3GNT2 cells"}, "LYZ [6]": {"target": "LYZ (UniProt P61626)", "experiment": "co-IP with mouse IgG control, mass spectrometry; lysate of N-FLAG B3GNT2 cells"}, "SLIRP": {"target": "SLIRP (UniProt Q9GZT3)", "experiment": "co-IP with mouse IgG control, mass spectrometry; lysate of N-FLAG B3GNT2 cells"}, "TPI1": {"target": "TPI1 (UniProt P60174)", "sequence (P60174 2-249 limits assumed)": "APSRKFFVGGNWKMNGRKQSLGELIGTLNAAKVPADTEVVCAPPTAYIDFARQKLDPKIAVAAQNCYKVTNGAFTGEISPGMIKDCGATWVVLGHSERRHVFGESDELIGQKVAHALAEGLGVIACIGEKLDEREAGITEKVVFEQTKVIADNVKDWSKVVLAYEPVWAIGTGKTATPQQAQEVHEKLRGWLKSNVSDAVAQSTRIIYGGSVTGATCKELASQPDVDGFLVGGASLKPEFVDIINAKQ", "experiment": "co-IP with mouse IgG control, mass spectrometry; lysate of N-FLAG B3GNT2 cells"}, "PCMT1": {"target": "PCMT1 (UniProt P22061)", "experiment": "co-IP with mouse IgG control, mass spectrometry; lysate of N-FLAG B3GNT2 cells"}, "FABP5": {"target": "FABP5 (UniProt Q01469)", "sequence (Q01469 2-135 limits assumed)": "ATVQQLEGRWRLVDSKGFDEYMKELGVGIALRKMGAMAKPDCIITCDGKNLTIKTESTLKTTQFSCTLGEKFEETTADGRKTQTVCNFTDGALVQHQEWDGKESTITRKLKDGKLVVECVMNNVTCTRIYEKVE", "experiment": "co-IP with mouse IgG control, mass spectrometry; lysate of N-FLAG B3GNT2 cells"}, "YWHAZ": {"target": "YWHAZ (UniProt P63104)", "experiment": "co-IP with mouse IgG control, mass spectrometry; lysate of N-FLAG B3GNT2 cells"}, "HNRNPF": {"target": "HNRNPF (UniProt P52597)", "experiment": "co-IP with mouse IgG control, mass spectrometry; lysate of N-FLAG B3GNT2 cells"}, "RPL35A": {"target": "RPL35A (UniProt P18077)", "experiment": "co-IP with mouse IgG control, mass spectrometry; lysate of N-FLAG B3GNT2 cells"}, "SERPINB12": {"target": "SERPINB12 (UniProt Q96P63)", "experiment": "co-IP with mouse IgG control, mass spectrometry; lysate of N-FLAG B3GNT2 cells"}, "RPL31": {"target": "RPL31 (UniProt P62899)", "experiment": "co-IP with mouse IgG control, mass spectrometry; lysate of N-FLAG B3GNT2 cells"}, "RPLP2": {"target": "RPLP2 (UniProt P05387)", "sequence (P05387 whole entry)": "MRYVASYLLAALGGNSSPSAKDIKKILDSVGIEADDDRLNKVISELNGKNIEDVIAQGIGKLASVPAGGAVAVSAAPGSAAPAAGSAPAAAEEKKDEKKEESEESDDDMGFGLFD", "experiment": "co-IP with mouse IgG control, mass spectrometry; lysate of N-FLAG B3GNT2 cells"}, "RPL21": {"target": "RPL21 (UniProt P46778)", "experiment": "co-IP with mouse IgG control, mass spectrometry; lysate of N-FLAG B3GNT2 cells"}, "ACTR3 [7]": {"target": "ACTR3 (UniProt P61158)", "experiment": "co-IP with mouse IgG control, mass spectrometry; lysate of N-FLAG B3GNT2 cells"}, "SSR1 [8]": {"target": "SSR1 (UniProt P43307)", "experiment": "co-IP with mouse IgG control, mass spectrometry; lysate of N-FLAG B3GNT2 cells"}, "RPS17": {"target": "RPS17 (UniProt P08708)", "experiment": "co-IP with mouse IgG control, mass spectrometry; lysate of N-FLAG B3GNT2 cells"}, "EEF1A1": {"target": "EEF1A1 (UniProt P68104)", "sequence (P68104 2-462 limits assumed)": "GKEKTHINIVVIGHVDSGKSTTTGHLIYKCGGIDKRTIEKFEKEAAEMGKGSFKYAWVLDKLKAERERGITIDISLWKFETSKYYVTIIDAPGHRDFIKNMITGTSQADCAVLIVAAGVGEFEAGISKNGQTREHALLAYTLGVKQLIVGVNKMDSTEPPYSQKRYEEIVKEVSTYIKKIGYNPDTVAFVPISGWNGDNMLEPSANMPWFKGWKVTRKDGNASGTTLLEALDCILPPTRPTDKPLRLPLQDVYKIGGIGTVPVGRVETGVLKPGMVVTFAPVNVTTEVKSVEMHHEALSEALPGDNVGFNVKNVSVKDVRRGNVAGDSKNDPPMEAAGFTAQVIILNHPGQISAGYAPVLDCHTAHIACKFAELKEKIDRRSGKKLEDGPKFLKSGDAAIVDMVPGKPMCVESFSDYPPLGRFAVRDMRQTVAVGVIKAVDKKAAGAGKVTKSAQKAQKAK", "experiment": "co-IP with mouse IgG control, mass spectrometry; lysate of N-FLAG B3GNT2 cells"}, "UBA52": {"target": "UBA52 (UniProt P62987)", "experiment": "co-IP with mouse IgG control, mass spectrometry; lysate of N-FLAG B3GNT2 cells"}, "LTF [9]": {"target": "LTF (UniProt P02788)", "experiment": "co-IP with mouse IgG control, mass spectrometry; lysate of N-FLAG B3GNT2 cells"}, "ENO1": {"target": "ENO1 (UniProt P06733)", "sequence (P06733 2-434 limits assumed)": "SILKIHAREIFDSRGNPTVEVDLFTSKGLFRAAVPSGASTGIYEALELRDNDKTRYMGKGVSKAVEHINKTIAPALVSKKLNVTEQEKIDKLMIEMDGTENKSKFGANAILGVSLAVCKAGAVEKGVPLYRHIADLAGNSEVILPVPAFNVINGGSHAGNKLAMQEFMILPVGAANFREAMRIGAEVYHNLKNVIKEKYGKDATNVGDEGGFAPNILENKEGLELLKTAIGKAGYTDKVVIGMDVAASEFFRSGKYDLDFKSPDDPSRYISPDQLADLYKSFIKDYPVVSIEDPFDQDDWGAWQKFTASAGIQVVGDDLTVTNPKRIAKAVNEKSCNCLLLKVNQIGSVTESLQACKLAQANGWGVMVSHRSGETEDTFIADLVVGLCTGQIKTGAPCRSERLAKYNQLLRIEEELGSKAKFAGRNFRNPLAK", "experiment": "co-IP with mouse IgG control, mass spectrometry; lysate of N-FLAG B3GNT2 cells"}, "HBA1": {"target": "HBA1 (UniProt P69905)", "sequence (P69905 2-142 limits assumed)": "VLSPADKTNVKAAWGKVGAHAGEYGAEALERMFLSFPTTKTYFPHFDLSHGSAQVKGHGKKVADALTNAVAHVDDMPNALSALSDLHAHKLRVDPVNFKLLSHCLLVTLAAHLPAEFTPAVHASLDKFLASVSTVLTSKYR", "experiment": "co-IP with mouse IgG control, mass spectrometry; lysate of N-FLAG B3GNT2 cells"}, "ATP5F1B [10]": {"target": "ATP5F1B (UniProt P06576)", "experiment": "co-IP with mouse IgG control, mass spectrometry; lysate of N-FLAG B3GNT2 cells"}, "RPS15A": {"target": "RPS15A (UniProt P62244)", "experiment": "co-IP with mouse IgG control, mass spectrometry; lysate of N-FLAG B3GNT2 cells"}, "AHNAK": {"target": "AHNAK (UniProt Q09666)", "experiment": "co-IP with mouse IgG control, mass spectrometry; lysate of N-FLAG B3GNT2 cells"}, "RPL36": {"target": "RPL36 (UniProt Q9Y3U8)", "experiment": "co-IP with mouse IgG control, mass spectrometry; lysate of N-FLAG B3GNT2 cells"}, "S100A9": {"target": "S100A9 (UniProt P06702)", "experiment": "co-IP with mouse IgG control, mass spectrometry; lysate of N-FLAG B3GNT2 cells"}, "RPN1": {"target": "RPN1 (UniProt P04843)", "sequence (P04843 24-607 limits assumed)": "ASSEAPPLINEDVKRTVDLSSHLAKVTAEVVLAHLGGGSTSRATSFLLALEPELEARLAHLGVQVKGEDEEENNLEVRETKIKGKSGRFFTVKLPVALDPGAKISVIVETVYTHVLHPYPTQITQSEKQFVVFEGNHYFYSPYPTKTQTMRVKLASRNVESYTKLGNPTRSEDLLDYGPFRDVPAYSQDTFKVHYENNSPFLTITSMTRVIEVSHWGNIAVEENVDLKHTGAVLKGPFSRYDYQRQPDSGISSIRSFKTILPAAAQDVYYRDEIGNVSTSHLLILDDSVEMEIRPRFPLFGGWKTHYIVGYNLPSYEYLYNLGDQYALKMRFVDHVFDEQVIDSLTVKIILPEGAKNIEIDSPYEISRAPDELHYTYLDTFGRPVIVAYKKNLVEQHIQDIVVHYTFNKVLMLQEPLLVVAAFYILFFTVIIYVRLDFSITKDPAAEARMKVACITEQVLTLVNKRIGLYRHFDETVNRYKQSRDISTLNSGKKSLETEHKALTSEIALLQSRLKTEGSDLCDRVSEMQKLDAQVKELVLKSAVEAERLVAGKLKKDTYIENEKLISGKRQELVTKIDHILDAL", "experiment": "co-IP with mouse IgG control, mass spectrometry; lysate of N-FLAG B3GNT2 cells"}, "RPS11": {"target": "RPS11 (UniProt P62280)", "experiment": "co-IP with mouse IgG control, mass spectrometry; lysate of N-FLAG B3GNT2 cells"}}, "data": [{"substance": "IgG control (Millipore Sigma 12-371) (antibody)", "values": [{"measurement": "co-IP mass spectrometry count", "setting": "LYZ [1]", "value": 0}, {"measurement": "co-IP mass spectrometry count", "setting": "S100A8", "value": 5}, {"measurement": "co-IP mass spectrometry count", "setting": "ATXN2L", "value": 2}, {"measurement": "co-IP mass spectrometry count", "setting": "ACTR3 [2]", "value": 2}, {"measurement": "co-IP mass spectrometry count", "setting": "SSR1 [3]", "value": 0}, {"measurement": "co-IP mass spectrometry count", "setting": "SPRR2E", "value": 5}, {"measurement": "co-IP mass spectrometry count", "setting": "LTF [4]", "value": 2}, {"measurement": "co-IP mass spectrometry count", "setting": "ATP5F1B [5]", "value": 0}, {"measurement": "co-IP mass spectrometry count", "setting": "RPL11", "value": 3}, {"measurement": "co-IP mass spectrometry count", "setting": "YBX3", "value": 0}, {"measurement": "co-IP mass spectrometry count", "setting": "RPL10A", "value": 4}, {"measurement": "co-IP mass spectrometry count", "setting": "LYZ [6]", "value": 4}, {"measurement": "co-IP mass spectrometry count", "setting": "SLIRP", "value": 0}, {"measurement": "co-IP mass spectrometry count", "setting": "TPI1", "value": 2}, {"measurement": "co-IP mass spectrometry count", "setting": "PCMT1", "value": 0}, {"measurement": "co-IP mass spectrometry count", "setting": "FABP5", "value": 2}, {"measurement": "co-IP mass spectrometry count", "setting": "YWHAZ", "value": 0}, {"measurement": "co-IP mass spectrometry count", "setting": "HNRNPF", "value": 0}, {"measurement": "co-IP mass spectrometry count", "setting": "RPL35A", "value": 0}, {"measurement": "co-IP mass spectrometry count", "setting": "SERPINB12", "value": 0}, {"measurement": "co-IP mass spectrometry count", "setting": "RPL31", "value": 0}, {"measurement": "co-IP mass spectrometry count", "setting": "RPLP2", "value": 3}, {"measurement": "co-IP mass spectrometry count", "setting": "RPL21", "value": 5}, {"measurement": "co-IP mass spectrometry count", "setting": "ACTR3 [7]", "value": 3}, {"measurement": "co-IP mass spectrometry count", "setting": "SSR1 [8]", "value": 0}, {"measurement": "co-IP mass spectrometry count", "setting": "RPS17", "value": 3}, {"measurement": "co-IP mass spectrometry count", "setting": "EEF1A1", "value": 8}, {"measurement": "co-IP mass spectrometry count", "setting": "UBA52", "value": 5}, {"measurement": "co-IP mass spectrometry count", "setting": "LTF [9]", "value": 6}, {"measurement": "co-IP mass spectrometry count", "setting": "ENO1", "value": 2}, {"measurement": "co-IP mass spectrometry count", "setting": "HBA1", "value": 3}, {"measurement": "co-IP mass spectrometry count", "setting": "ATP5F1B [10]", "value": 0}, {"measurement": "co-IP mass spectrometry count", "setting": "RPS15A", "value": 2}, {"measurement": "co-IP mass spectrometry count", "setting": "AHNAK", "value": 0}, {"measurement": "co-IP mass spectrometry count", "setting": "RPL36", "value": 0}, {"measurement": "co-IP mass spectrometry count", "setting": "S100A9", "value": 0}, {"measurement": "co-IP mass spectrometry count", "setting": "RPN1", "value": 0}, {"measurement": "co-IP mass spectrometry count", "setting": "RPS11", "value": 8}]}]}
